Where “and” joins values, the source holds several entries; their conditions need not be identical. Identical values can stand only once.

The text below walks through data of patent US20150368309A1 (SHIRE HUMAN GENETIC THERAPIES, published 2015).

Data set [1] deals with T1, mouse sFlt-1 (mouse, UniProt P35969 23-759, limits assumed).
T1 construct: also called msFlt-1
T1 sequence (looked up): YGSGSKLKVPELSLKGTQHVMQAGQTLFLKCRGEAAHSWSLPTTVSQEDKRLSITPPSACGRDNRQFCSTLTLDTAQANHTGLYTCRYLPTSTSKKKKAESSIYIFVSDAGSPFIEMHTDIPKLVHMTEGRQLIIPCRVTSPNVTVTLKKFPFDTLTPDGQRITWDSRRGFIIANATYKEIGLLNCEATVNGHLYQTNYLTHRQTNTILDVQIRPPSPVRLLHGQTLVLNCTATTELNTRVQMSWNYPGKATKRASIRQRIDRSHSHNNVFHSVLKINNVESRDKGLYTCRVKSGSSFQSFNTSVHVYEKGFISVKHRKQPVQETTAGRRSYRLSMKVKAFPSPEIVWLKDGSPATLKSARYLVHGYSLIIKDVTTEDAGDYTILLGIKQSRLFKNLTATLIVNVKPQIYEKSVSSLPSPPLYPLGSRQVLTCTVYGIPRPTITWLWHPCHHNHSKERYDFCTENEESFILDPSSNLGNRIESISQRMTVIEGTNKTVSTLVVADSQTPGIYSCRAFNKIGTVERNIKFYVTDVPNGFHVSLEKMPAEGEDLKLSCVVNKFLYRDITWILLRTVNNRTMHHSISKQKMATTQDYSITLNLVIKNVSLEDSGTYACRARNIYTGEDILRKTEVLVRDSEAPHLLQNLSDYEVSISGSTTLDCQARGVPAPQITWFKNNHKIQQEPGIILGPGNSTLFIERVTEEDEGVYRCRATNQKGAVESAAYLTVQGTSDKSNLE
As to the kind of experiment: SPR (Biacore T200), msFlt-1 captured, PLGF as analyte, 1:1 model. The procedure: (§1) In the capture approach, goat anti-hIgG Fc polyclonal antibody (30 μg/mL in 10 mM acetate buffer, pH 5.0) was immobilized onto a CM5 chip by amine coupling. The immobilization level or surface density of anti-hIgG Fc antibody was controlled between 6000 to 8000 RU. For the kinetic study, sFlt-1-Fc was captured on the surface that was immobilized with the anti-hIgG Fc antibody, before each injection of PLGF variants. The capture level of sFlt-1-Fc (10 μg/mL) was controlled by varying contact time, 10 to 30 seconds, at flow rate 10 μL/min. PLGF variants, as analytes, were serially diluted in HBS-EP+ buffer from 50 to 0.03 nM, and injected to the surface that captured sFlt-1-Fc. The association time for each PLGF variants injection was 300 seconds at 30 μL/min and dissociation time was 600 seconds at the same flow rate. After each round of PLGF variants' injection, a regeneration of […] H3PO4 pH1.8 at 60 μl/min for 90 seconds was performed. The regeneration step effectively removes the complex of sFlt-1-Fc and PLGF variants from the surface that was immobilized with anti-hIgG Fc antibody. A stabilization step was applied for 90 seconds after regeneration.
(§2) The binding characteristics of PLGF variants, PLGF C59A, human WT PLGF and mouse WT PLGF, with msFlt-1 were studied in the mouse model. The same capture approach for hsFlt-1 was used for the msFlt-1.
For orientation: In SPR one partner is held on a chip, and binding of the other changes the refractive index at the surface.

For data set [2], the target named is T2, human sFlt-1-Fc (human, UniProt P17948-2 27-687, limits assumed).
T2 construct: A bought fusion protein; also called hsFlt-1-Fc; hsFlt-1-Fc dimer; not shown: Fc part (captured and detected with anti-human IgG Fc)
As to the kind of experiment: surface plasmon resonance (BIACORE), overlaid multi-cycle sensorgrams with 1:1 binding model fit; the sheet says only 'sFlt-1', neither species nor format is printed.

For data set [3], the target named is T2, human sFlt-1-Fc. As to the kind of experiment: VEGF:sFlt1 inhibition ELISA: binding of human sFlt-1 Fc to immobilized human VEGF in the presence of PLGF, detected with HRP anti-human IgG Fc, normalized to binding without PLGF. The method, then:
Inhibition of binding of VEGF to sFlt-1 by WT PLGF and PLGFC59A was also assessed by ELISA. The addition of recombinant human […] inhibited binding of recombinant VEGF to recombinant human sFlt-1 chimera (FIG. 6). Binding of human sFlt-1 Fc to immobilized human VEGF was quantified by immunodetection with HRP conjugated anti-human IgG Fc. Data were normalized to binding sFlt-1 Fc to VEGF in the absence of PLGF.
(In general: An ELISA detects its analyte on a solid surface through an enzyme-linked reagent.)

For data set [4], the target named is T1, mouse sFlt-1. As to the kind of experiment: SPR, capture approach. The method, then: as §1, §2
Data set [5] deals with T2, human sFlt-1-Fc. As to the kind of experiment: isothermal titration calorimetry, PLGF C59A in the syringe titrated into sFlt-1-Fc in the cell, 25 C, PBS pH 7.4, model OneSites. The method, then: (§3) PLGF C59A and human sFlt-1-Fc (Cat#321-FL/CF, R&D System) were extensively dialyzed against PBS pH 7.4 buffer overnight. After dialysis, the proteins were concentrated using VIVISPIN 500 (10 kDa Cutoff, Cat# vs0601). The ratio of PLGF C59A in syringe to sFlt-1-Fc in the cell was about 10:1, with PLGF C59A concentration to be 77 μM, and the concentration of sFlt1-Fc to be 5.3 μM. Titrations were carried out using 2.0-μL injections for total 18 injections. An initial 2-μl injection was carried out but the data not included in the final data analysis. All titrations were done at 25° C. The binding isotherm was fitted with nonlinear regression on ORIGIN (GE MICROCAL, INC). The stoichiometry (N) of the binding interaction, the equilibrium association constant (KA) and enthalpy (ΔH) of the complex formation were calculated from the titration data.

The target of data set [6] is T1, mouse sFlt-1. The experiment in a line: SPR (Biacore T200), msFlt-1 captured, 1:1 model; column 'KD (M) Average' of the two runs. The method, then: as §1, §2
The target in data set [7] is T2, human sFlt-1-Fc. As to the kind of experiment: SPR (Biacore T200), hsFlt-1-Fc, 1:1 model; format of this run (capture or single cycle) not marked in the table. The procedure: In the single cycle kinetic approach, PLGF C59A at 50 μg/ml in 10 mM acetate buffer pH 5.0 was immobilized via ligand thiol coupling to ˜200 RU. sFlt-1-Fc dimer was serially diluted in HBS-EP+ running buffer from 30 to 1.875 nM. The sFlt-1-Fc dimer was injected from low to high concentration sequentially, without dissociation phase and regeneration step. The association step was 180 seconds per injection at 30 μL/min. At the end of the last injection, one single dissociation step was performed at 30 μL/min, for one hour to collect sufficient dissociation data.
Due to the nonspecific binding of hsFlt-1 on the reference cells and the poor regeneration conditions for PLGF C59A, a single cycle kinetic method were adopted by immobilizing PLGF C59A vial thiol coupling, and injecting hsFlt-1 as analyte. In the single cycle kinetic approach, PLGF C59A was immobilized onto CM4 chips through free cysteine residuals, C69 and C125, in PLGF C59A. Concentration of the Flt1-Fc dimer injected was varied from 0.37 to 30 nM. The binding characteristics, association rate constant (Ka), dissociation rate constant (Kd) and equilibrium dissociation constant (KD), are summarized in Table 6.

Data set [8] concerns the target T2, human sFlt-1-Fc. The experiment in a line: isothermal titration calorimetry, PLGF C59A (77 uM) titrated into sFlt-1-Fc (5.3 uM), 25 C, PBS pH 7.4. The procedure: as §3
The target of data set [9] is T2, human sFlt-1-Fc. As to the kind of experiment: SPR (Biacore T200), hsFlt-1-Fc, 1:1 model; column 'KD (M) Average' of the two runs.
Data set [10] concerns the molecule itself. As to the kind of experiment: DSS crosslinking, anti-Flt-1 Western blot. The procedure:
PLGF and sFlt-1 (Human sFlt-1:Abcam, Cat#54346) were incubated on ice for 2 hrs in 100 μL crosslinking buffer. After the incubation, the crosslinking reagent, Disuccinimidyl suberate (DSS), was added, 1 μL of 25 mM stock DSS (in DMSO) to a final concentration of 250 μM. After brief vortexing, the mixture was incubated on ice for additional 15 min.
To analyze the crosslinked complexes using Western blot, the pellets were solubilized with 30 μL of 1×LDS buffer containing 10 mM DTT. After heating the dissolved pellets to 37° C. for 15 min, 10 μL of the sample was loaded onto 8 to 16% Tris-glycince SDS-PAGE gel. The gels were transferred to PVDF membranes by standard method for anti-PLGF or anti-Flt-1 Western blot analysis.
WT PLGF forms dimers in its native state, and the binding models of WT PLGF with hsFlt-1 were established. A PLGF C59A monomer binding with Flt-1 receptor monomer is also found. The binding complexes, WT PLGF-hsFlt-1 and PLGF C59A-hsFlt-1, were crosslinked by DSS through amine groups on the surface of PLGF or hsFlt-1 molecules. After separating on SDS-PAGE, PLGF-containing or Flt-1 containing binding complexes were detected on Western blot by anti-PLGF or anti-Flt-1 antibodies.
(In general: In western blotting, separated proteins are transferred to a membrane and probed.)

B1: PLGF C59A (ligand)
chain: LPAVPPQQWALSAGNGSSEVEVVPFQEVWGRSYCRALERLVDVVSEYPSEVEHMFSPSAVSLLRCTGCCGDENLHCVPVETANVTMQLLKIRSGDRPSYVELTFSQHVRCECRPLREKMKPERCGDAVPRRHHHHHH
notes: Expressed in human fibrosarcoma cells, purified on a Nickel column, glycosylated; RC4 96.7% monomer; R3 97.1% monomer, formulated in 1 mM DTT; also called C59A PLGF; not shown: Tev protease cleavage site added at the C-terminus
For B1, in the data set with mouse sFlt-1 [1], the Kd was 7.22 nM and 3.12 nM; the koff is 0.000496 s⁻¹ and 0.000633 s⁻¹; the kon is 159000 M⁻¹ s⁻¹ and 87700 M⁻¹ s⁻¹. Also, in the data set with human sFlt-1-Fc [2], binding was characterised by a dissociation constant (Kd) of 0.572 nM, the koff came to 0.000338 s⁻¹ and the kon was 592000 M⁻¹ s⁻¹. For the same molecule, the IC50 with human sFlt-1-Fc [3] stood at 28.3 nM. In the data set with mouse sFlt-1 [4], the “fold weaker affinity than human WT PLGF with msFlt-1” value was around 90 fold and the “fold weaker affinity than mouse WT PLGF with msFlt-1” value was around 250 fold. In the data set with human sFlt-1-Fc [5], this molecule yielded a Ka of 2.03e+07 M⁻¹, a ΔH of -12.8 kcal/mol and a ΔS of -9.4 cal/mol/deg. Besides, binding in the data set with mouse sFlt-1 [6] was characterised by a dissociation constant (Kd) of 5.17 nM. Also, in the data set with human sFlt-1-Fc [7], the Kd was 1.61 nM and 0.886 nM; the koff was 0.000372 s⁻¹ and 0.000234 s⁻¹; the kon is 231000 M⁻¹ s⁻¹ and 264000 M⁻¹ s⁻¹. The Kd with human sFlt-1-Fc [8] is around 49 nM. In the data set with human sFlt-1-Fc [9], this molecule gave an equilibrium dissociation constant (Kd) of 1.25 nM.

B2: Human sFlt-1 (Abcam, Cat#54346), without Fc fusion (receptor, UniProt P17948-2 27-687, looked up)
chain: SKLKDPELSLKGTQHIMQAGQTLHLQCRGEAAHKWSLPEMVSKESERLSITKSACGRNGKQFCSTLTLNTAQANHTGFYSCKYLAVPTSKKKETESAIYIFISDTGRPFVEMYSEIPEIIHMTEGRELVIPCRVTSPNITVTLKKFPLDTLIPDGKRIIWDSRKGFIISNATYKEIGLLTCEATVNGHLYKTNYLTHRQTNTIIDVQISTPRPVKLLRGHTLVLNCTATTPLNTRVQMTWSYPDEKNKRASVRRRIDQSNSHANIFYSVLTIDKMQNKDKGLYTCRVRSGPSFKSVNTSVHIYDKAFITVKHRKQQVLETVAGKRSYRLSMKVKAFPSPEVVWLKDGLPATEKSARYLTRGYSLIIKDVTEEDAGNYTILLSIKQSNVFKNLTATLIVNVKPQIYEKAVSSFPDPALYPLGSRQILTCTAYGIPQPTIKWFWHPCNHNHSEARCDFCSNNEESFILDADSNMGNRIESITQRMAIIEGKNKMASTLVVADSRISGIYICIASNKVGTVGRNISFYITDVPNGFHVNLEKMPTEGEDLKLSCTVNKFLYRDVTWILLRTVNNRTMHYSISKQKMAITKEHSITLNLTIMNVSLQDSGTYACRARNVYTGEEILQKKEITIRGEHCNKKAVFSRISKFKSTRNDCTTQSNVKH
notes: also called hsFlt-1; commercial sFlt-1 that doesn't contain Fc fusion
Consider B2, for which the binding result in data set [10] is given as “no binding”.

The Kd is the free concentration of one partner at which half of the binding sites on the other are occupied at equilibrium, for simple one-to-one binding. Low values mean tighter binding, high ones weaker binding. A word on the koff: it is the first-order rate constant of dissociation. Read a high koff as fast dissociation. What is called kon is the second-order rate constant of association. Read a low kon as slow association. In general, IC50 refers to the midpoint of a concentration-inhibition curve.
